According to patent US20250339529A1 (MINK THERAPEUTICS, published 2025):
Changes are numbered by the printed parent chain. Numbers in names are those of the source.

T1: BCMA-Fc antigen (UniProt Q02223 1-54)
T1 construct: Immobilized on a protein A chip
T1 sequence (looked up): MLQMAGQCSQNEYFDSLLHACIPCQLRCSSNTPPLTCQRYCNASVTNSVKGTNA

T2: BCMA antigen (UniProt Q02223 1-54, limits assumed)
T2 construct: also called wild type BCMA
T2 sequence (looked up): T1 sequence (looked up)

B1: F1G scFv CAR on iNKT cells (other)
chain: QVQLVQSGAEVKKPGASVKVSCKASGYTFTSYGISWVRQAPGQGLEWMGWISAYNGNTYYAEDLQGRLTMTTDTSTSTAYMELRSLRSDDTAVYYCAREGSYYDSSGYYLPYWGQGTLVTVSSGGGGSGGGGSGGGASQSALTQPRSVSGSPGQSVTISCTGTSSDVGAYNYVSWYQQHPGKAPKLMIYDVTERPSGVPDRFSGSKSGNTASLTISGLQAEDEADYYCSSYTSSSIAFGGGTKLTVLGQPAAATTTPAPRPPTPAPTIASQPLSLRPEACRPAAGGAVHTRGLDFACDIYIWAPLAGTCGVLLLSLVITLYCKRGRKKLLYIFKQPFMRPVQTTQEEDGCSCRFPEEEEGGCELRVKFSRSADAPAYQQGQNQLYNELNLGRREEYDVLDKRRGRDPEMGGKPRRKNPQEGLYNELQKDKMAEAYSEIGMKGERRRGKGHDGLYQGLSTATKDTYDALHMQALPPR
notes: Chimeric antigen receptor on iNKT cells with secreted IL-15; also called F1G-IL-15; F1G IL-15
B2: F6G scFv (germlined F6, parental clone of the ADD mutagenesis) (scFv)
scFv: QVQLVQSGAEVKKPGASVKVSCKASGYTFTGYYMHWVRQAPGQGLEWMGWMNPNSGNTGYAQKFQGRVTMTRNTSISTAYMELSSLRSEDTAVYYCARAQWEPLDYWGQGTLVTVSSGGGGSGGGGSGGGASSYELTQPPSVSVSPGQTARITCSGDALPKKYTYWYQQKSGQAPVLVIYEDTKRPSGIPERFSGSSSGTMATLTISGAQVEDEADYYCLSTDPTGQESVFGGGTKLTVLGQP
notes: scFv expressed in a cell free system from PCR fragments; also called parental F6G clone; germline F6G
B3: F6G scFv with E to Y substitution in position 49 of CDRL2 (scFv)
scFv: B2 scFv with E181Y
notes: Cell free expressed scFv; also called E to Y substitution in position 49 of light CDRL2

Legend:
BCMA-Fc antigen [1] = molecular target: T1, BCMA-Fc antigen; experiment: flow cytometry, lentivirally transduced iNKT cells stained with BCMA-Fc and A647 anti-human IgG Fc; Donor 1, Transduced; Non transduced control 2.00
Method: (§1) Purified and a-GalCer expanded iNKT cells from 2 donors were stimulated with TransAct (Miltenyi) and transduced with lentivirus (MOI 3) encoding for various 2nd Generation BCMA-CAR molecule and secreted IL-15. Constructs including F6G-Var2 IL-15, F6G variant 2 (no IL-15), F1G-IL-15, bb2121-IL-15, and CD19-CAR-IL-15 were tested. Cells were expanded for 10 to 12 days then transduced cells were co-cultured with K562 cells expressing BCMA at a ratio iNKT:K562 of 1:1. Cells were cultured and enriched with media supplemented with supporting cytokines IL-2 (100 IU/mL), IL-15 (100 UI/mL) and IL-21 (20 IU/mL). […]
(§2) Transduced cells pre-co-culture and enriched cells post co-culture with K562-BCMA were analyzed for CAR expression by flow cytometry (FIG. 17). iNKT cells were incubated with a LIVE/DEAD (Biolegend) reagents to separate live from dead cells and then stained for cell surface markers BCMA-CAR or CD19-CAR, BUV395 CD8 (BD, clone RPA-T8) and BUV563 CD4 (BD, clone OKT4). BCMA-CAR expression was detected with an unconjugated, primary BCMA-Fc reagent (AcroBiosystems) while CD19 CAR expression was detected with an unconjugated, primary CD19-Fc reagent (AcroBiosystems). […]

BCMA-Fc antigen [2] = molecular target: T1, BCMA-Fc antigen; experiment: flow cytometry, lentivirally transduced iNKT cells stained with BCMA-Fc and A647 anti-human IgG Fc; Donor 2, Transduced; Non transduced control 0.74
Method: as §1, §2

BCMA-Fc antigen [3] = molecular target: T1, BCMA-Fc antigen; experiment: flow cytometry, lentivirally transduced iNKT cells stained with BCMA-Fc and A647 anti-human IgG Fc; Donor 2, Enriched on K562-BCMA; Non transduced control 1.34
Method: as §1, §2

BCMA-Fc antigen [4] = molecular target: T1, BCMA-Fc antigen; experiment: flow cytometry, lentivirally transduced iNKT cells stained with BCMA-Fc and A647 anti-human IgG Fc; Donor 1, Enriched on K562-BCMA; Non transduced control 7.76
Method: as §1, §2

BCMA antigen = molecular target: T2, BCMA antigen; experiment: SPR (Biacore 4000), cell-free expressed scFv on BCMA antigen
Source text: Further, a germlined version of F6 (F6G) was affinity matured by a combination of two methods: Accelerated Drug Discovery (ADD) approach and affinity maturation of by phage libraries. FIGS. 9A-9C describe the ADD approach. FIG. 9A is a schematic representation of the CDR positions undergone mutagenesis. Each amino acid in the heavy and light CDRs was substituted with 8 different amino acids; Tyr, Ser, Pro, Leu, his, Gly, Asp, Asn. Fragments containing single amino acids substitutions were generated by mutagenesis PCR. The PCR fragments were then used as a template to express the scFv in a cell free system. Affinity KD (M) values of mutant scFvs binding to BCMA antigen. Experiment was run in Biacore 4000. The dotted line indicates the binding of the parental F6G clone. KD below the dotted line means improvement in affinity. […] Individual Biacore sensorgrams for E to Y substitution in position 49 of CDRL2 are shown (FIG. 9C).

Row | Molecule | % of cells in the CAR+ gate (BCMA-Fc antigen [1]) [%] | % of cells in the CAR+ gate (BCMA-Fc antigen [2]) [%] | % of cells in the CAR+ gate (BCMA-Fc antigen [3]) [%] | % of cells in the CAR+ gate (BCMA-Fc antigen [4]) [%] | binding result (BCMA antigen)
1 | bb2121 CAR on iNKT cells (clinical benchmark) | 15.9 | 36.2 | 94.1 | 95.5 | –
2 | B1 | 20.7 | 20.9 | 93.1 | 31.4 | –
3 | B2 | – | – | – | – | binds
4 | B3 | – | – | – | – | binds
